The values below come from US20080044412A1, “Single-Domain Antibody Strengthening Fusion Protein Vh-Ldp-Ae” (INSTITUTE OF MEDICINAL BIOTECHNOLOGY CHINESE ACADEMY OF …, priority 2004, published 2008).

In general, IC50 refers to the concentration at which inhibition is half-maximal. Read a low IC50 as greater potency in that assay.

“And” between values parts separate entries of the source, which are not always exact repeats. Equal values may be shown once. Some results are limits rather than exact numbers.

One series concerns transplanted hepatoma 22. Description: Transplanted hepatoma 22 growth in mice. As to conditions: for Inhibition rate / Tumor volume x ± s: tail vein, day 14. How it is done:
Kunming mice, weighing between 18-22 g, were randomly separated into different groups of 10 mice each. On day 0, hepatoma 22 cells (1.5×10^6 cells/0.2 ml/mouse) diluted with saline were transplanted subcutaneously into the right axilla of mice. On day 1 (after 24 h), the therapy was started and VH-LDP-AE at different doses, LDM at 0.05 mg/kg, mitomycin (MMC) at 1 mg/kg were administered respectively to the tumor bearing mice (0.2 ml/mouse) by injection into the tail vein. Mice of control group were injected with saline. Diameters of the tumors were measured every 3 days during the experiment. Weights of the mice were recorded. The tumor volumes were calculated with the following formula: V=0.5ab^2, where a and b is the long and the perpendicular short diameters of the tumor, respectively. The curves of tumor growth were plotted and the inhibition rates were calculated.

The next series relates to colon carcinoma 26. The following applies: cited from earlier work.
In another series the test system is cecum carcinoma Hce-8693. As to conditions: nude mice; cited from earlier work.
The next series has as its system PG cells. Description: MTT cytotoxicity assay, PG. The series is classed as cell-based. As to conditions: 72 h. Here is the method:
(§1) MTT assay was used. After digestion and counting, cells in exponential growth phase were seeded at 3000 cells/well in 96-well plates, and cultured at 37° C. in 5% CO2 for 24 hours. Drugs of various concentrations were added with 3 aliquots, and the cells were cultured for another 72 h. 50 μl of MTT (2 mg/ml) in serum-free RPMI 1640 were added into each well, and the cells were cultured at 37° C. for 4 h. Remove the culture medium gently; add 150 μl DMSO each well; incubate at room temperature for 15 min on a shaker; measure the absorbance at 560 nm on a microplate reader. Survival ratio and IC50 values were calculated according to the following equation: Survival ratio=(Atest−Ablank)/(Acontrol−Ablank)×100%.
(Tetrazolium assays rely on reduction of a dye to a coloured formazan, in cell work by metabolically active cells.)

A further series has as its system hepatoma Bel-7402. The following applies: nude mice; cited from earlier work.
The next series concerns KB cells. Description: MTT cytotoxicity assay, KB. Format: cell-based, human. The following applies: 72 h. How it is done:
as §1

The subject of the next series is HT-1080 cells. Description: MTT cytotoxicity assay, HT-1080. As to conditions: 72 h. The series is classed as cell-based. Here is the method: as §1
In series [1] the test system is mouse normal liver sections. Description: Immunohistochemical (SABC) staining of mouse normal liver sections. The series is classed as binding. The following applies: FIG. 7. How it is done:
(§2) Immunohistochemical (IHC) staining was performed by streptavidin-biotin-peroxidase complex (SABC) staining with SABC kit (Boster Company). The sections were blocked by normal goat serum for 20 min at room temperature and the excessive liquid was removed. The sections without washing were added with diluted said VH-LDP fusion protein as prepared in example 3 and incubated at room temperature; then diluted anti-His6-tag antibody and biotinylated goat-anti-mouse IgG were added in turn. Finally SABC reagent was added. DAB kit was used as a chromogen for visualized reaction at room temperature. The sections were counter-stained by hematoxylin, dehydrated, cleared, sealed, and observed with microscope.

Series [2] deals with type IV collagenase secreted by HT-1080 cells. Description: Gelatin zymography in HT-1080 cells. The series is classed as cell-based. The following applies: 24 h, 25, 50, 100 μM (FIG. 8), dependent on concentration. How it is done:
Gelatin zymography protocol was used. Exponentially growing HT-1080 cells were seeded at 10^5/well in 24-well plates and incubated at 37° C. in 5% CO2. After 24 h, the culture medium was removed and 1 ml serum-free RPMI 1640 medium was added for washing twice. Add 120 μl of serum-free RPMI 1640 medium and 30 μl of fusion protein VH-LDP as prepared in example 3 to each well, and add 30 μl PBS to control well. Culturing the cells at 37° C. for 24 h. Harvest the culture medium, and centrifuging at 500 g for 5 min. Then take the supernatant for non-denaturalization electrophoresis on SDS-PAGE. Wash the gels with distilled water 3 times. Put the gels into 100 ml of 2.5% TritonX-100, shake on a shaker for 30 min at low speed. Then Wash the gels 2 times with distilled water; repeat the washing process with TritonX-100 above. The gels was washed with distilled water 2 times, and incubated at 37° C. for 16-18 h in 100 ml of gelatinase buffer (50 mM Tris-HCl, pH 7.5, 200 mM NaCl, 10 mM CaCl2, 1 μM ZnCl2). The gels were stained with Coomassie-brilliant blue R-250 and destained with acetic acid: methanol:water (10:45:45). The negative stained bands were observed.

In series [3] the test system is human hepatoma SMMC-7721 cells. Description: ELISA immunoreactivity with fixed SMMC-7721 cells. The series is classed as binding. As to conditions: FIG. 5. Here is the method:
(§3) Immunoreactivity of fusion protein VH-LDP was detected by ELISA. At first, type IV collagenase or tumor cells was coated or fixed to 96-well ELISA plates: well was coated with 100 μl of type IV collagenase (10 μg/ml, diluted by PBS) and the plates were stored at 4° C. overnight; Human hepatoma SMMC-7721 cells or human KB cells were seeded at 10^4/well in 96-well plates and cultured for 24 h, washed with PBS for 3 times, added 0.05% cold (4° C.) Glutaraldehyde and fixed for 15 min. Then the coated or fixed plates were washed with PBS 3 times, and blocked with 200 μl/well of 1% bovine serum albumin (BSA)/PBS at 4° C. overnight. The plates were washed 3 times with PBS. Then 200 μl of serial concentrations of fusion protein VH-LDP were added into each well of the plates and incubated for 2 hours at 37° C. Washing the plates 3 times with 0.05% Tween 20/PBS (PBST), adding 50 μl of anti-His6-Tag monoclonal antibody diluted 1:1500 to each well, and incubating at 37° C. for 1 h. Washing the plates 3 times with PBST, adding 50 μl of HRP conjugated goat anti-mouse IgG (at 1:2000 dilution), and incubating at 37° C. for 1 hour. Washing the plates with PBST 6 times, adding 100 μl of OPD substrate reaction solution to each well, incubating the plates at room temperature for 10 min in the dark. […] Then the optical density (OD) of each well was measured at 490 nm using a microplate reader.
On the technique in general: An ELISA detects its analyte on a solid surface through an enzyme-linked reagent.

Series [4] in a line: State of refolded fusion protein in PBS solution. Format: physicochemical. Here is the method: The inventors attempted to make fusion gene in the form of VH-LDP by fusing VH domain against type IV collagenase to apoprotein LDP of LDM, and then expressing the fusion protein in E. coli.
The fusion protein VH-LDP after purification was refolded: the purified protein was diluted to a final concentration of 15 μM with eluting buffer mentioned above, and β-mercaptoethanol was added to a final concentration of 10 mM. After being stored at room temperature for 30 min, the sample was placed in a dialysis bag and dialyzed against at least 50 vol. of refolding buffer 1 (50 mM Tris-HCl pH 8.0, 1 mM EDTA, 200 mM NaCl, 6 M urea). And the following dialysis was against the same buffer with step-wise reduction in the urea concentration (3M, 2M, 1M, 0.5M, and 0M). On a 1-M stage, 750 μM of glutathione (GSSG) and 400 mM of L-Arginine were added to the dialysis buffer. Then the sample was dialyzed against 50 vol. of PBS solution (pH 7.4). Each dialysis was performed for 12 h and with buffer changed twice. All dialysis was performed at 4° C. After dialysis, the sample was centrifuged at 10,000 g for 30 min at 4° C. and the supernatant was collected. After being condensed, the active fusion protein VH-LDP was obtained and stored at −20° C. for later use.

A further series deals with type IV collagenase. Description: ELISA immunoreactivity with type IV collagenase. As to conditions: FIG. 4. Format: binding. How it is done:
as §3

Series [5] relates to solid tumor of mouse hepatoma 22. Description: Immunohistochemical (SABC) staining of mouse hepatoma sections. The following applies: FIG. 7. Format: binding. How it is done: as §2
Series [6] deals with bFGF-stimulated angiogenesis. Description: Chick embryo allantoic membrane (CAM) anti-angiogenesis assay. Format: in vivo. The following applies: 72 h, 0.5 μg/egg (FIG. 10). How it is done: Anti-angiogenic activity of VH-LDP-AE was examined in chick embryoallantoic membrane assay (CAM). The surface of 7-day-old post-fertilization chick eggs (White Leghorn) in a 60% humidified incubator at 37° C. was sterilized and the CAM was […]) exposed by cutting a window (2 cm^2) on the egg shell using the false air-sac technique. After 24 h, 10 μl of bFGF was dipply added to agarose disks with the energized fusion protein VH-LDP-AE at various concentrations which was prepared as mentioned in Example 7, and then the disks were placed on top of the CAM. After the windows were sealed with transparent tape, the eggs were incubated for further 72 h.

Series [7] has as its system human colon carcinoma HT-29 cells. Description: MTT combination assay on HT-29 cells (CDI). The following applies: HT-29, MTT. Format: cell-based. Here is the method:
MTT assay was used. After trypsin-EDTA digestion, the human colon carcinoma HT-29 cells in exponential growth were seeded at 4000 cells/well in 96-well plates, and cultured for 24 hours. Then add 20 μl of different concentrations of hydroxylcamptothecin or 5-fluorouracil; 8 hours later, add different concentrations of VH-LDP-AE. Continue to culture the cells at 37° C. in 5% CO2 for 72 h. Add 50 μl of MTT at concentration of 2 mg/ml, culture the cells at 37° C. for 4 hours. Then remove the supernatant; add 150 μl DMSO each well; ten minutes later, measure the absorbance at 560 nm on a microplate reader. In cancer pharmacology, interactions of drug combination were evaluated by coefficient of drug interaction (CDI). There existed synergistic effects with CDI<1, and there existed very significant ones with CDI<0.7. […] It was usual that monoclonal antibodies were combined with anti-cancer drugs.

Turning to `CO[C@@]12[C@H](COC(N)=O)C3=C(C(=O)C(C)=C(N)C3=O)N1C[C@@H]1N[C@@H]12` [MMC, mitomycin], the Body weight begin in the series on transplanted hepatoma 22 (1 mg/kg, begin) was determined as 18.82 g. In the series on transplanted hepatoma 22 (1 mg/kg, end (day 14)), this molecule came in with a Body weight end of 29.29 g. Besides, in the series on transplanted hepatoma 22 (1 mg/kg), the Inhibition rate was 51.5^Δ % and the “Tumor volume x ± s” value was 2.23 ± 2.15 cm^3. The Inhibition rate with transplanted hepatoma 22 (1 mg/kg, listed as mitomycin) is recorded as 51.5%.

As for lidamycin [LDM], in the series with colon carcinoma 26, the “growth of colon carcinoma 26 in mice” value is “remarkably inhibited”. Also, the “growth of human cancer xenograft cecum carcinoma Hce-8693” value with cecum carcinoma Hce-8693 is recorded as “potent inhibitory effect”. Further, the half-maximal inhibitory concentration (IC50) in the series with PG cells came out at 6.3 pM; in the series with KB cells it was 1.08 pM; in the series with HT-1080 cells, 2.21 pM. In the series on hepatoma Bel-7402, the “growth of human cancer xenograft hepatoma Bel-7402” value was “potent inhibitory effect”. Also, the Inhibition rate in the series on transplanted hepatoma 22 (0.05 mg/kg) was 79.6% and 79.6^ΔΔ %. In addition, in the series on transplanted hepatoma 22 (0.05 mg/kg), the “Tumor volume x ± s” value was 0.94 ± 0.53 cm^3. The molecule also had a maximal tolerated dose with transplanted hepatoma 22 (mice) of 0.05 mg/kg.

B1: VH-LDP: VH domain of anti-type IV collagenase mAb 3G11, GGGGS spacer, lidamycin apoprotein LDP and His6-Tag; SEQ ID NO: 2 (protein)
chain: MQVKLQQSGTEVVKPGASVKLSCKASGYIFTSYDIDWVRQTPEQGLEWIGWIFPGEGSTEYNEKFKGRATLSVDKSSSTAYMELTRLTSEDSAVYFCARGDYYRRYFDLWGQGTTVTVSSGGGGSAPAFSVSPASGLSDGQSVSVSVSGAAAGETYYIAQCAPVGGQDACNPATATSFTTDASGAASFSFVVRKSYTGSTPEGTPVGSVDCATAACNLGAGNSGLDLGHVALTFGLEHHHHHH
modifications: fusion protein of Vh and LDP
In the case of B1, in series [1], the “immunohistochemical staining in mouse normal liver sections” value was “negatively stained”. The “inhibition of type IV collagenase activity secreted by cancer cells” value in [2] is reported as “inhibit significantly”. In addition, in series [3], the “binding activity to human hepatoma SMMC-7721 cells” value is recorded as “positive”. For the same molecule, in series [4], the solubility after refolding result is given as “soluble in PBS solution”. In addition, the “fraction existing in monomer state” value in series [4] (after refolding) was found to be 75%. Also, the “binding activity to type IV collagenase” value in the series on type IV collagenase is reported as “positive”. For the same molecule, the “immunohistochemical staining in mouse hepatoma sections” value in [5] is listed as “positively stained”.

B2: VH-LDP-AE (conjugate)
chain: MQVKLQQSGTEVVKPGASVKLSCKASGYIFTSYDIDWVRQTPEQGLEWIGWIFPGEGSTEYNEKFKGRATLSVDKSSSTAYMELTRLTSEDSAVYFCARGDYYRRYFDLWGQGTTVTVSSGGGGSAPAFSVSPASGLSDGQSVSVSVSGAAAGETYYIAQCAPVGGQDACNPATATSFTTDASGAASFSFVVRKSYTGSTPEGTPVGSVDCATAACNLGAGNSGLDLGHVALTFGLEHHHHHH
modifications: AE chromophore assembled; fusion protein of Vh and LDP
As to B2, in series [6], the “suppression of angiogenesis stimulated by bFGF” value was “significantly suppress angiogenesis”. Moreover, the “coefficient of drug interaction (CDI)” value in series [7] (10 μM of 5-fluorouracil plus 3 ng/ml of VH-LDP-AE) and in series [7] (hydroxylcamptothecin (1 μM) plus VH-LDP-AE (3 ng/ml)) was below 0.7 throughout. For the same molecule, the Inhibition rate is 88.1% and 88.1*^ΔΔ % in the series on transplanted hepatoma 22 (0.125 mg/kg); 95.9% and 95.9**^ΔΔ % with transplanted hepatoma 22 (0.25 mg/kg). The “Tumor volume x ± s” value is reported as 0.55 ± 0.24 cm^3 in the series on transplanted hepatoma 22 (0.125 mg/kg) and 0.19 ± 0.21 cm^3 in the series on transplanted hepatoma 22 (0.25 mg/kg). The “effect on growth of hepatoma 22 in mice” value in the series with transplanted hepatoma 22 (both 0.25 mg/kg and 0.125 mg/kg, more potent than free lidamycin 0.05 mg/kg (FIG. 11)) was “inhibited or retarded the growth”. In the series on transplanted hepatoma 22 (mouse, in vivo), the “body weight loss and side-effects during the experiments” value was “No body weight loss and other severe side-effects were found”.
